Patent US20220411531A1 (SUMGEN MAB BEIJING BIOTECH, published 2022)

Biological target: T1, AXL on the surfaces of human tumour cells (A549, MDA-MB-231, 786-O) (human, UniProt P30530 27-894)
T1 construct: Endogenous AXL on human tumour cell lines; The tie to the cell-line protein rests on this general definition only; also called cell surface antigen
T1 sequence: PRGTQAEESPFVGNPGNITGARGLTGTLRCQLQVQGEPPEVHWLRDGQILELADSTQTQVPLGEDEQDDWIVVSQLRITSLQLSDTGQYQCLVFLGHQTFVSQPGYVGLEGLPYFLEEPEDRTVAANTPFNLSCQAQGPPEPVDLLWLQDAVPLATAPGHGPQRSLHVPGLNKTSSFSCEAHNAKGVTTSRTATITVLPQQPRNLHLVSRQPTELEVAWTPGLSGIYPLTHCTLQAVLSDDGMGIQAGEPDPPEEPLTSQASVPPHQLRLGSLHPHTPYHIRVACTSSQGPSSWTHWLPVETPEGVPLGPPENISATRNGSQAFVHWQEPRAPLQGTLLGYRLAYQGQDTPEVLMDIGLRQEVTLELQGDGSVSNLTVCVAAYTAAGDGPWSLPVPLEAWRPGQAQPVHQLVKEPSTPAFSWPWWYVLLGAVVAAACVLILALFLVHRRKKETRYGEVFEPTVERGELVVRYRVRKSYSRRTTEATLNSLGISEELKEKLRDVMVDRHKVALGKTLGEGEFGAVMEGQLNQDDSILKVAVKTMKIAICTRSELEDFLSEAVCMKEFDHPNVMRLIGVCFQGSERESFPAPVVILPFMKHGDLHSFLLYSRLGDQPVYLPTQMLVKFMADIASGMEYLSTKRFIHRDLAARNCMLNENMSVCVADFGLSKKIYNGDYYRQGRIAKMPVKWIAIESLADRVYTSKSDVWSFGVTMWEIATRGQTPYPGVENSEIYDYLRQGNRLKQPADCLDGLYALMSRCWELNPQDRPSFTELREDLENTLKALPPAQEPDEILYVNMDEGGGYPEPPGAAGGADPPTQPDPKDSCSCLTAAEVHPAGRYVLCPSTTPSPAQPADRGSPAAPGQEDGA
Assay: flow cytometry on 786-O cells (second experiment, FIG. 10); 786-O cells; second experiment, FIG. 10
Method: Cells in a logarithmic growth phase were collected; the cell density was regulated to 5×10⁶ cells/mL; and pre-cooling was performed on ice. The antibodies 6G12M11, 6G12M21, 6G12M31, and 6G12M41 were diluted to 20 μg/ml with pre-cooled normal saline containing 2% FBS. 100 μl of cells were taken, and an equal volume of each of the foregoing diluted antibodies was added to the cells to react for 30 minutes at 4° C. in the dark. After the completion of reaction, the cells were washed twice with pre-cooled physiological saline containing 2% FBS (6000 rpm, 45 s). The secondary antibody PE Mouse Anti-Human IgG (BD Pharmingen) was diluted at 1:5 with pre-cooled physiological saline containing 2% FBS, and 100 μL of the secondary antibody was taken for resuspending the cells, with a reaction conducted for 30 minutes at 4° C. in the dark. After the reaction, the cells were washed twice with pre-cooled physiological saline containing 2% FBS (6000 rpm, 45 s). The cells were resuspended by using 400 μl of 1% paraformaldehyde. The binding of antibodies to cell surface antigens was analyzed by means of a flow cytometer (BD Calibur).

EC50: 0.4 µg/mL
B1: antibody 6G12M21 (antibody, human IgG1, kappa, V domains shown)
VH: QVQLVQSGPGLVKPSQSLSLTCSVTGFSISSGYYWNWIRQFPGQKLEWMGYRSYDGSNNYNPSLKNRISITRDTSKNQFFLKLNSVTSEDTATYYCARGWLLHYTMDYWGQGTTVTVSS
VL: DIVMTQSPSSVSVTLGQSASISCRSSRSLLHSNGFTYLYWYLQKPGQSPQLLIYQMSNLASGVPDRFSGSGSGTDFTLKISRVEAEDVGVYYCGQNLELPLTFGGGTKLEIKR
